Experimental findings from patent US20240218048 are described below.

Data set [1] concerns factor VIII expressed by F8-BDD-299.
The subject of data set [2] is factor VIII expressed by F8-BDD-N8.
Data set [3] has as its system factor VIII expressed by F8-BDD (normal unmodified B-domain-deleted F8).

Take Thrombin (FIIa): the “activity of factor VIII after thrombin was added (substrate luminescence assay, every two minutes)” value in data set [1] was “From the second minute, the activity of factor VIII expressed by F8-BDD-299 is significantly increased”; in data set [2], “the activity of factor VIII expressed by F8-BDD and F8-BDD-N8 is slightly increased”; in data set [3], “the activity of factor VIII expressed by F8-BDD and F8-BDD-N8 is slightly increased”.
